Experiments:
[1] = target: T1, xlCARα (Xenopus laevis, UniProt A0A1L8FCY0); assay: CARLA: ligand-dependent pull-down of […]-labelled receptor by GST-SRC-1 RID; settings: pH 8.0, 4 °C overnight; agonist; indirect coactivator-dependent binding assay
T1 construct: gene nr1i3.L; full-length; 35S-Met labelled by in vitro transcription/translation (CARLA, with human GST-SRC-1 RID 583-783 as read-out) or expressed in HepG2 cells; LBD residues 145-423
T1 sequence (A0A1L8FCY0 19-441): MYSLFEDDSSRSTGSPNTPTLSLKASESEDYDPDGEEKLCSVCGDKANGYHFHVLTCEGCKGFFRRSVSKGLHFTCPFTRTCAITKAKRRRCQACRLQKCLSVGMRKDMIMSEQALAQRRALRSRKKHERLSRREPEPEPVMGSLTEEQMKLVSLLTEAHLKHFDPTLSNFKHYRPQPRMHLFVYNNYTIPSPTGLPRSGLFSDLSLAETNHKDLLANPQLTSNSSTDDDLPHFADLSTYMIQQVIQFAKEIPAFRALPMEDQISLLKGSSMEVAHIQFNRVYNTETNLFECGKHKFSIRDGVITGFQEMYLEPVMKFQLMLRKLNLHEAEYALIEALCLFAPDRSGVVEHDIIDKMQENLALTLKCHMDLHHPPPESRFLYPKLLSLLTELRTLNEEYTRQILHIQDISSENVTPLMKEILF

[2] = target: GAL4-DBD/PGC-1α-RID fusion protein (human PGC-1α, receptor interaction domain, amino acids 88-213) (UniProt Q9UBK2); assay: mammalian two-hybrid assay; settings: COS7 cells; pM-PGC1a (black bars); no ligand; n = 9; empty pVP16-AD with pM-PGC1a est. 3.3 (red line); parent: est. 3.6; read off a plot
[3] = target: GAL4-DBD/SRC1-RID fusion protein (human coactivator SRC-1, receptor interaction domain, amino acids 583–783) (UniProt Q15788); assay: mammalian two-hybrid assay; settings: COS7 cells; pM-SRC-1 (black bars); no ligand; n = 9; empty pVP16-AD with pM-SRC-1 est. 0.57 (red line); parent: est. 0.49; read off a plot
[4] = target: GAL4-DBD/RXRα-LBD fusion protein (human retinoid X receptor α, amino acids 226–462) (UniProt P19793); assay: mammalian two-hybrid assay; settings: COS7 cells; GAL4-dependent pGL3G5 reporter; no ligand; n = 6; parent: est. 40; read off a plot
[5] = target: GST-tagged SRC-1 RID protein (recombinant human SRC-1, amino acids 583–783) (UniProt Q15788); assay: CARLA; settings: n = 3, read off a plot; for response: absence of ligand (DMSO only), parent: est. 0.10; for other: fold induction (fold over DMSO only (=1)): 100 µM pregnanedione (log M = -4.0), parent: est. 74
Sequence of GST-tagged SRC-1 RID protein (recombinant human SRC-1, amino acids 583–783) (Q15788 583-783): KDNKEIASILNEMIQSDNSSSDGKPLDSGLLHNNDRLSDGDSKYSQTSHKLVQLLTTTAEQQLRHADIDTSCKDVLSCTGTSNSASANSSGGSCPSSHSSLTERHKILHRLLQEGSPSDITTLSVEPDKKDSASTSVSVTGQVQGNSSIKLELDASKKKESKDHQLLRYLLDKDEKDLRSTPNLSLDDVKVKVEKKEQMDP

Sequence of GAL4-DBD/RXRα-LBD fusion protein (human retinoid X receptor α, amino acids 226–462) (P19793 226-462): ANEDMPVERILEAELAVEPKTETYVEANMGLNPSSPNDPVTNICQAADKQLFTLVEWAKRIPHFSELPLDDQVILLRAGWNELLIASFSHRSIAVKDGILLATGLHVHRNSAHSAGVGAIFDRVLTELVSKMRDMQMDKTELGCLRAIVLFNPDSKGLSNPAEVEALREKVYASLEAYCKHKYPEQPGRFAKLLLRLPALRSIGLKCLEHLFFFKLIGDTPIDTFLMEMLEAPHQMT
Sequence of GAL4-DBD/SRC1-RID fusion protein (human coactivator SRC-1, receptor interaction domain, amino acids 583–783) (Q15788 583-783): as the sequence (Q15788 583-783) above
Sequence of GAL4-DBD/PGC-1α-RID fusion protein (human PGC-1α, receptor interaction domain, amino acids 88-213) (Q9UBK2 88-213): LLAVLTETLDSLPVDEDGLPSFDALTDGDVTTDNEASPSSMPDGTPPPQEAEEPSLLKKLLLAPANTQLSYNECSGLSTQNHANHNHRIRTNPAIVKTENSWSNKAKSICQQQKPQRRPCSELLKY

| Molecule | fold induction of SRC-1 interaction [1] | response [2] | response [3] | response (fold over empty vector pVP16-AD (=1)) [4] | response [5] | other: fold induction (fold over DMSO only (=1)) [5] |
| --- | --- | --- | --- | --- | --- | --- |
| CC(=O)[C@H]1CC[C@H]2[C@@H]3CC[C@@H]4CC(=O)CC[C@]4(C)[C@H]3CC[C@]12C [5β-pregnane-3,20-dione] | suggests that xlCARα binds pregnanedione with higher affinity than hsCAR |  |  |  |  |  |
| VP16-AD/xlCARα-LBD fusion protein, wild type (Xenopus laevis constitutive androstane receptor α, amino acids 145–423) His295Leu |  | 2.8 rel pM/pVP16 | 0.45 rel pM/pVP16 | 47 |  |  |
| VP16-AD/xlCARα-LBD fusion protein, wild type (Xenopus laevis constitutive androstane receptor α, amino acids 145–423) Met272Val |  | 5.5 rel pM/pVP16 | 0.71 rel pM/pVP16 | 55 |  |  |
| VP16-AD/xlCARα-LBD fusion protein, wild type (Xenopus laevis constitutive androstane receptor α, amino acids 145–423) Met272Val; Met316Phe |  | 5.5 rel pM/pVP16 | 0.77 rel pM/pVP16 | 59 |  |  |
| VP16-AD/xlCARα-LBD fusion protein, wild type (Xenopus laevis constitutive androstane receptor α, amino acids 145–423) Met316Phe |  | 5 rel pM/pVP16 | 0.8 rel pM/pVP16 | 56 |  |  |
| VP16-AD/xlCARα-LBD fusion protein, wild type (Xenopus laevis constitutive androstane receptor α, amino acids 145–423) Thr305Val |  | 5.7 rel pM/pVP16 | 0.99 rel pM/pVP16 | 110 |  |  |
| VP16-AD/xlCARα-LBD fusion protein, wild type (Xenopus laevis constitutive androstane receptor α, amino acids 145–423) Tyr311Phe |  | 4.2 rel pM/pVP16 | 0.61 rel pM/pVP16 | 98 |  |  |
| VP16-AD/xlCARα-LBD fusion protein, wild type (Xenopus laevis constitutive androstane receptor α, amino acids 145–423) Val315Ile |  | 2.8 rel pM/pVP16 | 0.38 rel pM/pVP16 | 41 |  |  |
| full-length Xenopus laevis CARα, wild type, 35S-labelled His295Leu |  |  |  |  | 0.11 % of input |  |
| full-length Xenopus laevis CARα, wild type, 35S-labelled Leu237Ile |  |  |  |  | 0.05 % of input | 28 |
| full-length Xenopus laevis CARα, wild type, 35S-labelled Met272Val |  |  |  |  | 0.17 % of input | 16 |
| full-length Xenopus laevis CARα, wild type, 35S-labelled Phe279Leu |  |  |  |  | 0.05 % of input | 2 |
| full-length Xenopus laevis CARα, wild type, 35S-labelled Phe297Tyr |  |  |  |  | 0.11 % of input |  |
| full-length Xenopus laevis CARα, wild type, 35S-labelled Ser238Asn |  |  |  |  | 0.11 % of input |  |
| full-length Xenopus laevis CARα, wild type, 35S-labelled Tyr311Phe |  |  |  |  | 0.06 % of input |  |
| full-length Xenopus laevis CARα, wild type, 35S-labelled Val315Ile |  |  |  |  | 0.09 % of input | 10 |
